The values that follow come from publication PMC11251186, “Higher-order structure and proteoforms of co-occurring C4b-binding protein assemblies in human serum” (The EMBO Journal, 2024).

The labels stand for the following.
B1: C4b-binding protein alpha chain (C4BPα) (natural protein, human, UniProt P04003 49-597, looked up)
chain: NCGPPPTLSFAAPMDITLTETRFKTGTTLKYTCLPGYVRSHSTQTLTCNSDGEWVYNTFCIYKRCRHPGELRNGQVEIKTDLSFGSQIEFSCSEGFFLIGSTTSRCEVQDRGVGWSHPLPQCEIVKCKPPPDIRNGRHSGEENFYAYGFSVTYSCDPRFSLLGHASISCTVENETIGVWRPSPPTCEKITCRKPDVSHGEMVSGFGPIYNYKDTIVFKCQKGFVLRGSSVIHCDADSKWNPSPPACEPNSCINLPDIPHASWETYPRPTKEDVYVVGTVLRYRCHPGYKPTTDEPTTVICQKNLRWTPYQGCEALCCPEPKLNNGEITQHRKSRPANHCVYFYGDEISFSCHETSRFSAICQGDGTWSPRTPSCGDICNFPPKIAHGHYKQSSSYSFFKEEIIYECDKGYILVGQAKLSCSYSHWSAPAPQCKALCRKPELVNGRLSVDKDQYVEPENVTIQCDSGYGVVGPQSITCSGNRTWYPEVPKCEWETPEGCEQVLTGKRLMQCLPNPEDVKMALEVYKLSLEIEQLELQRDSARQSTLDKEL
modifications: N-glycans at N221, N506, N528
notes: eight CCP domains and the C-terminal oligomerization core; without the signal peptide; Disulfide-linked to the other C4BPα chains and to C4BPβ in the assembly; also called α chain; source: endogenous, pooled healthy donor serum (SEC LC-MS)
B2: C4b-binding protein beta chain (C4BPβ) (natural protein, human, UniProt P20851 18-252, looked up)
chain: SDAEHCPELPPVDNSIFVAKEVEGQILGTYVCIKGYHLVGKKTLFCNASKEWDNTTTECRLGHCPDPVLVNGEFSSSGPVNVSDKITFMCNDHYILKGSNRSQCLEDHTWAPPFPICKSRDCDPPGNPVHGYFEGNNFTLGSTISYYCEDRYYLVGVQEQQCVDGEWSSALPVCKLIQEAPKPECEKALLAFQESKNLCEAMENFMQQLKESGMTMEELKYSLELKKAELKAKLL
modifications: N-glycans at N64, N71, N98, N117, N154
notes: three CCP domains; N-terminus S18 after the propeptide cleavage; Disulfide-linked to C4BPα in the assembly; also called β chain; source: endogenous, pooled healthy donor serum (SEC LC-MS)
B3: vitamin K-dependent protein S (ProS) (protein)
chain: ANSLLEETKQGNLERECIEELCNKEEAREVFENDPETDYFYPKYLVCLRSFQTGLFTAARQSTNAYPDLRSCVNAIPDQCSPLPCNEDGYMSCKDGKASFTCTCKPGWQGEKCEFDINECKDPSNINGGCSQICDNTPGSYHCSCKNGFVMLSNKKDCKDVDECSLKPSICGTAVCKNIPGDFECECPEGYRYNLKSKSCEDIDECSENMCAQLCVNYPGGYTCYCDGKKGFKLAQDQKSCEVVSVCLPLNLDTKYELLYLAEQFAGVVLYLKFRLPEISRFSAEFDFRTYDSEGVILYAESIDHSAWLLIALRGGKIEVQLKNEHTSKITTGGDVINNGLWNMVSVEELEHSISIKIAKEAVMDINKPGPLFKPENGLLETKVYFAGFPRKVESELIKPINPRLDGCIRSWNLMKQGASGIKEIIQEKQNKHCLVTVEKGSYYPGSGIAQFHIDYNNVSSAEGWHVNVTLNIRPSTGTGVMLALVSGNNTVPFAVSLVDSTSEKSQDILLSVENTVIYRIQALSLCSDQQSHLEFRVNRNNLELSTPLKIETISHEDLQRQLAVLDKAMKAKVATYLGGLPDVPFSATPVNAFYNGCMEVNINGVQLDLDEAISKHNDIRAHSCPSVWKKTKNS
modifications: N-glycans at N499, N509, N530

“And” between values parts separate entries of the source, which are not always exact repeats. Equal values may be shown once.

In data set [1] the target is B2. Briefly: native MS; Orbitrap charge detection MS (CDMS) of native C4BP, 1 M ammonium acetate pH 7.4, ~1 μM. Particulars: both partners purified.
Data set [2] deals with the molecule itself. As to the kind of experiment: cross-linking; C4BP 0.5 g/l in PBS pH 7.4, 1 mM DSS or 5 mM DMTMM, 30 min, room temperature; SDS-PAGE bands digested with trypsin, LC-MS/MS; cross-links kept if found in two of three replicates.
Data set [3] concerns the target T1, vitamin K-dependent protein S (ProS) (human, UniProt P07225 42-676, N-glycans at N499, N509, N530).
T1 construct: vitamin K-dependent protein S (ProS), human serum protein; GLA domain, four EGF-like domains (E1-E4), two laminin G-like domains (LG1-2); without signal peptide and propeptide; source: purified from pooled plasma of more than 16 healthy donors together with C4BP (bought: Complement Technology, Inc); endogenous, pooled healthy donor serum (SEC LC-MS)
T1 sequence (looked up): B3 chain
The data set is described as above. Particulars: both partners purified.

Data set [4] addresses B1. The description is as above. Particulars: both partners purified.
Data set [5] addresses T2, C4b-binding protein beta chain (C4BPβ) (Homo sapiens (Human), UniProt P20851, N-glycans at N64, N71, N98, N117, N154).
T2 chain: B2 chain
Briefly: native CDMS, mass photometry, XL-MS and HS-AFM of co-purified serum C4BP complex; C4BPβ present only disulfide-linked to C4BPα in the serum C4BP assembly (α7β1/α6β1), co-purified with ProS; the non-covalent complex dissociates at pH 2 or in urea.

With B1, in data set [1], the “stoichiometry N” value is 7 C4BPα chains per C4BPβ chain and 6 C4BPα chains per C4BPβ chain. For the same molecule, the binding result in data set [2] is reported as “binds”.

In the case of B2, the binding result in data set [3] and in data set [4] was “binds” each time.

For B3, in data set [5], the binding result was “binds”.
